In US20100160228:

Molecular target: VEGFR2 (vascular endothelial growth factor receptor 2), expressed from plasmid in HEK293 cells, P35968
Sequence (P35968 20-1356): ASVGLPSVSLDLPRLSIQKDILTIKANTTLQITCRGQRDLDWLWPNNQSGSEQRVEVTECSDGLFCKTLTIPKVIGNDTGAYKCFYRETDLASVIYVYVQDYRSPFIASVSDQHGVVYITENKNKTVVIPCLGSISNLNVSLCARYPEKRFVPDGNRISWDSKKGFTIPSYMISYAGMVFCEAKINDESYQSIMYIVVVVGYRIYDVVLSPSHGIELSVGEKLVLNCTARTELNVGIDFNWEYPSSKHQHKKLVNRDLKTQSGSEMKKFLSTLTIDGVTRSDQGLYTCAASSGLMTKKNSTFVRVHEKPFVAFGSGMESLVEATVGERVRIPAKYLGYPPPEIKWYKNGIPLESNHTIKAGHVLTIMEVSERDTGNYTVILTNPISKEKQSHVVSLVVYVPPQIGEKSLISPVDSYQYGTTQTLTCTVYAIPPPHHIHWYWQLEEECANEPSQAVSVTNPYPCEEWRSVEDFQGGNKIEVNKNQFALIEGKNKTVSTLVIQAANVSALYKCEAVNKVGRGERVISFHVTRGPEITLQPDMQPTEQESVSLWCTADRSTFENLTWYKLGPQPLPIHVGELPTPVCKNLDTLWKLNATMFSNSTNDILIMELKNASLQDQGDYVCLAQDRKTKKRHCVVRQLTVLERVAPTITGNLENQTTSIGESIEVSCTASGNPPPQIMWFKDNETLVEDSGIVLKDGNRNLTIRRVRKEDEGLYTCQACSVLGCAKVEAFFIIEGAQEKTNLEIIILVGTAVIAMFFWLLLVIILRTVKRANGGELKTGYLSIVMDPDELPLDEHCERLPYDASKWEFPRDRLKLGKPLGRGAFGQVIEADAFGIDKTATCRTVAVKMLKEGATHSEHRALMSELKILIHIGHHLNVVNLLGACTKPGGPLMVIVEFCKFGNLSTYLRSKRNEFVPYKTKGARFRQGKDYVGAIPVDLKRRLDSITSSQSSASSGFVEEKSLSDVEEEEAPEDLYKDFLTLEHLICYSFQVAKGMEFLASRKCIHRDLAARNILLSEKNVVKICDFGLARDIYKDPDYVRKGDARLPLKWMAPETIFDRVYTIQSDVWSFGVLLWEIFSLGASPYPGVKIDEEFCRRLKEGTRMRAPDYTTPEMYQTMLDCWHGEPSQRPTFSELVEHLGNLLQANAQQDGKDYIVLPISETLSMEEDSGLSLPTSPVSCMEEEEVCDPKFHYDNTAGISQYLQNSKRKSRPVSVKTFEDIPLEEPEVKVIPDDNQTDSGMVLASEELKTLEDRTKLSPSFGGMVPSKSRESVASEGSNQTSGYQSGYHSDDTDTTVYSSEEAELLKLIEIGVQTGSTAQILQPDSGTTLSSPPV

B1: recombinant, purified TCPTP (T-cell protein tyrosine phosphatase) (protein)
chain: MPTTIEREFEELDTQRRWQPLYLEIRNESHDYPHRVAKFPENRNRNRYRDVSPYDHSRVKLQNAENDYINASLVDIEEAQRSYILTQGPLPNTCCHFWLMVWQQKTKAVVMLNRIVEKESVKCAQYWPTDDQEMLFKETGFSVKLLSEDVKSYYTVHLLQLENINSGETRTISHFHYTTWPDFGVPESPASFLNFLFKVRESGSLNPDHGPAVIHCSAGIGRSGTFSLVDTCLVLMEKGDDINIKQVLLNMRKYRMGLIQTPDQLRFSYMAIIEGAKCIKGDSSIQKRWKELSKEDLSPAFDHSPNKIMTEKYNGNRIGLEEEKLTGDRCTGLSSKMQDTMEENSESALRKRIREDRKATTAQKVQQMKQRLNENERKRKRPRLTDT
in vitro dephosphorylation of VEGFR2 tyrosines 996, 1175 and 1214: TCPTP showed a striking specificity to two tyrosine residues studied (Y1214 and Y996), while tyrosine 1175 was not a TCPTP target
in vitro dephosphorylation of isolated VEGFR2 (immunoblot with phospho-specific VEGFR2 antibodies): purified, recombinant TCPTP was able to dephosphorylate isolated VEGFR2 in vitro
